Molecular target: Cry11Aa toxin, trypsin-activated (Bacillus thuringiensis subsp. …, UniProt P21256 1-643)
Experiment: ELISA

B1: truncated AaeAPN1 fragment AaeAPN1t (amino acids 525-778) (domain or fragment)
chain: RTYETGDIIISQERFISDRKVPNTNVWMIPYNYVHQSKADFDDLSTFSWLSTKAARINTEVPANEWIIFNKQQVGYYRVNYDANNWELITNALINNLSSIDRLNRAQLIDDAYWLARSGRLDIEVLMKLLTYLKDETEYAPWTAANNVLSYFNGKLRGTPAYKDFTTMVDHLIKKVYKTLDVTAVSDTEPLLHKYLKQTISTWACLIGNEDCLKRTKEALQKEVTEGIPVHPDVATVVYCNGLRTADVAEYQYL
Binder B1 has a Kd of 8.5 nM.
